Where no end group is shown, it is not given here. The star is where a group is joined. Biotin = O=C1N[C@H]2[C@H](CS[C@H]2CCCCC(=O)*)N1
T1: Peptide A (human PAR-2), unbiotinylated (Human)
T1 construct: also called Peptide A No Biotin
T1 peptide: GTNRSSKGRSLIGKVDGT

T2: Peptide B (human PAR-2), C-terminal biotinylated (Human, not fully specified)
T2 construct: also called Peptide B C-Term
T2 peptide: SLIGKVDGTSHVTGGGGGS-biotin

T3: Peptide B (human PAR-2), N-terminal biotinylated (Human)
T3 construct: also called Peptide B N-Term
T3 peptide: Biotin-GGGGSSLIGKVDGTSHVTG

T4: Peptide C (human PAR-2), N-terminal biotinylated (Human)
T4 construct: also called Peptide C N-Term
T4 peptide: Biotin-GGGGSSLIGKV

T5: Peptide C (human PAR-2), C-terminal biotinylated (Human)
T5 construct: also called Peptide C C-Term
T5 peptide: SLIGKVGGGGS-biotin

T6: Peptide B (human PAR-2), unbiotinylated (Human)
T6 construct: also called Peptide B No Biotin
T6 peptide: SLIGKVDGTSHVTG

T7: Peptide A (human PAR-2), N-terminal biotinylated (Human, N-terminal biotin via G4S linker)
T7 construct: also called Peptide A N-Term
T7 peptide: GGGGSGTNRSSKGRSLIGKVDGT


What was measured:
[1] = target: T1, Peptide A (human PAR-2), unbiotinylated; assay: SPR, antibody captured, steady state
Method: (§1) Equilibrium dissociation constants (KD values) for antigen binding to selected purified PAR-2 antibodies were determined by surface kinetics using a real-time surface plasmon resonance biosensor assay. Antibody was captured on either a rabbit anti-mouse IgG polyclonal antibody (GE Healthcare, Piscataway, N.J.) surface or a goat anti-human IgG polyclonal antibody (Jackson Immuno Research Lab, West Grove, Pa.) surface created through direct amine chemical coupling to a BIACORE™ CM5 sensor chip to form a captured antibody surface. […] Antigen-antibody binding and dissociation were monitored in real time at room temperature. Kinetic analysis was performed to calculate KD and half-life of antigen/antibody complex dissociation (Table 10). For those antibodies where no T_{1/2} value is shown, steady state analysis was used to calculate the KD value. NB: no binding observed under current experimental conditions. ND: not determined.

[2] = target: T8, full length human PAR-2 (human, UniProt P55085 26-397); assay: cell ELISA, 10 ug/ml antibody
T8 construct: overexpressed on HEK293-derived 293/D9 cells; also called 293/D9/hPAR-2rec cells
T8 sequence (P55085 26-397 G138A limits assumed): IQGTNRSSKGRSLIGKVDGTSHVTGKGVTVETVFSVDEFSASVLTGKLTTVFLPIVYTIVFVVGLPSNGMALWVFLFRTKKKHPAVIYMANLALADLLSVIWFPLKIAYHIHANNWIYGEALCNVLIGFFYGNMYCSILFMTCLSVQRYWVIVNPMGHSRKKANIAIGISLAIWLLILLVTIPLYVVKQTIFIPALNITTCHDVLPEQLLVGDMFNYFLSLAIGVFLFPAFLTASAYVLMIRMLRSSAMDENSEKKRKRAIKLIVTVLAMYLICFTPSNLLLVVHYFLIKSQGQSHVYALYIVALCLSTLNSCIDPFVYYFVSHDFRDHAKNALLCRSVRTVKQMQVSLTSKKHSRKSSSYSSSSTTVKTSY
Description: HEK293 cells were transfected with an NF-κB-luciferase-IRES-eGFP reporter plasmid. […] A clonal cell line, named D9, having low background levels of luciferase activity and high levels of eGFP when induced with IL-1β was made by a series of successive sorts of cell populations using flow cytometry. The 293/D9 cell line was then separately transfected with human PAR-2 or mouse PAR-2 to create the stable cell lines 293/D9/h PAR-2rec and 293/D9/m PAR-2rec, respectively.
Binding of anti-PAR-2 antibodies to 293/D9/hPAR-2rec cells was determined by ELISA. 293/D9 and 293/D9/hPAR-2rec cells were plated at a density of 5×10⁴ cells/well in media and incubated overnight at 37° C. and 5% CO₂. Purified antibody was added to the cells to a final concentration of 10 μg/ml and incubated at room temperature for one hour. Cells were then fixed and washed before detection of bound antibodies with HRP conjugated anti-mouse IgG and developed by standard colorimetric response using TMB substrate. Absorbance was read at OD₄₅₀ for 0.1 second.

[3] = target: T2, Peptide B (human PAR-2), C-terminal …; assay: SPR, peptide immobilized
Method: (§2) In another series of experiments, equilibrium dissociation constants (KD values) for purified antibody binding to selected biotinylated and unbiotinylated forms of PAR-2 peptides were determined by surface kinetics using a real-time surface plasmon resonance biosensor assay. Neutravidin (Pierce, Rockford, Ill.) was covalently coupled to the surface of a Biacore™ C1 chip or CM5 chip using amine coupling chemistry. Biotinylated (N-Term or C-Term) PAR-2 peptides (Peptides A and B) were immobilized on the surface via the high affinity binding interaction between biotin and the amine coupled Neutravidin.
(§3) In a first experiment using this format, varying concentrations (ranging from 5 to 100 μg/ml) of purified antibody were injected at a rate of 50 μl/min over a surface coated with immobilized peptide at low-density (<1RU) for 300 seconds. Antibody-peptide binding and dissociation was monitored in real time 25° C.

[4] = target: T9, Peptide A (human PAR-2), C-terminal biotinylated (Human, C-terminal biotin via G4S linker); assay: SPR, peptide immobilized
T9 construct: also called Peptide A C-Term
Method: as §2, §3

[5] = target: T2, Peptide B (human PAR-2), C-terminal …; assay: peptide ELISA
Method: (§4) Anti-PAR-2 antibodies were tested for their ability to bind to the PAR-2 peptides. Various PAR-2 Peptides (Table 3) were coated onto 96-well plates at a concentration of 2 μg/ml and incubated overnight followed by blocking in a suitable blocking agent for one hour. […] Purified anti-PAR-2 antibodies were added to the plate coated with PAR-2 peptides to a final concentration ranging from 0.2 to 2.0 μg/ml and incubated for one hour at room temperature. Detection of bound antibodies was determined with Horse-Radish Peroxidase (HRP) conjugated anti-mouse or human IgG (Jackson Immuno Research Lab, West Grove, Pa.) and developed by standard colorimetric response using tetramethylbenzidine (TMB) substrate. Absorbance was read at OD₄₅₀ for 0.1 second.

[6] = target: T3, Peptide B (human PAR-2), N-terminal …; assay: peptide ELISA
Method: as §4

[7] = target: T4, Peptide C (human PAR-2), N-terminal …; assay: peptide ELISA
Method: as §4

[8] = target: T9, Peptide A (human PAR-2), C-terminal …; assay: peptide ELISA
Method: as §4

[9] = target: T5, Peptide C (human PAR-2), C-terminal …; assay: peptide ELISA
Method: as §4

[10] = target: T6, Peptide B (human PAR-2), unbiotinylated; assay: peptide ELISA
Method: as §4

[11] = target: T1, Peptide A (human PAR-2), unbiotinylated; assay: peptide ELISA
Method: as §4

[12] = target: T7, Peptide A (human PAR-2), N-terminal …; assay: peptide ELISA
Method: as §4

[13] = target: T6, Peptide B (human PAR-2), unbiotinylated; assay: SPR, antibody captured
Method: as §1

[14] = target: T1, Peptide A (human PAR-2), unbiotinylated; assay: SPR, antibody captured
Method: as §1

[15] = target: T8, full length human PAR-2; assay: cell-based or functional assay

Binder	Kd [1] [nM]	A450 ratio (293/D9/hPAR-2rec to 293/D9 cells) [2]	Kd [4] [nM]	T1/2 [4] [min]	OD450 [5] [od]	OD450 [6] [od]	OD450 [7] [od]	OD450 [8] [od]	OD450 [9] [od]	OD450 [10] [od]	OD450 [11] [od]	OD450 [12] [od]	Kd [13] [nM]	T1/2 [13] [min]	Kd [14] [nM]	T1/2 [14] [min]	IC50, NF-kB-luciferase, 10 nM Human Trypsin 1 [15] [nM]	IC50, NF-kB-luciferase, 10 nM Trypsin [15] [nM]	IC50, NF-kB-luciferase, 20 nM Trypsin [15] [nM]	IC50, NF-kB-luciferase, 250 nM Trypsin [15] [nM]	also measured
H1M590N (antibody, V domains shown, chimeric: human variable, mouse constant domains) VH: EVQLVESGGGLVQPGRSLRLSCAASGFTFDDYAMHWVRQAPGKGLEWVSGITWNSGTMAYADSVKGRFTISRDNAKNSLYLQMNSLRAEDTALYYCAKENWAFDYWGQGTLVTVSS VL: not shown	173	1.81	1.27	13	0 to 0.09	0 to 0.09	0 to 0.09	1 to 4	0 to 0.09	0 to 0.09	1 to 4	1 to 4									binding result [3]: no binding (tested: 5 to 100 ug/ml antibody)
H1M616N (antibody, V domains shown, chimeric: human variable, mouse constant domains) VH: EVQLVESGGGLAQPGRSLRVSCSASGFNFDDYAMHWVRQAPGKGLEWVSGISWNSGSRGYADSVKGRFTISRDNAKNSLYLQMNSLRAEDTALYYCVKENWAFEYWGQGTLVTVSS VL: DIVMTQTPLSSPVTLGQPASISCRSSHSLVHSDGSTYLSWLQQRPGQPPRLLIYKISNRFSGVPDRFSGSGAGTDFTLKISRVEAEDVGLYYCMQATQFPYTFGQGTKLEIK	144	2.78			0 to 0.09	0 to 0.09	0 to 0.09	1 to 4	0 to 0.09	0 to 0.09	1 to 4	1 to 4									
H2M588N (antibody, V domains shown, chimeric: human variable, mouse constant domains) VH: EVQLLESGGGLVQPGGSLRLSCAASGFTFSSYAMTWVRQAPGKGLYWVSAISGGRGSAYYADSVKGRFTISRDNSKNTLYLQMNSLRAEDTAVYYCAKEGDSGYDLAYWGRGTLVTVSS VL: DIQMTQSPSSLSASVGDRVTITCRARQGISNNLAWLQQKPGKAPKSLIYAASSLQSGIPSKFSGSGSGTYFTLTISSLQPEDFATYYCQQYKSSPLTFGGGTKVEIK		2.5	0.826	169	1 to 4	1 to 4	0 to 0.09	1 to 4	0 to 0.09	1 to 4	1 to 4	1 to 4	61.7	7.7	4.47	60.8	165	10.4	26.8	2.3	IC50, NF-kB-luciferase, 30 nM Trypsin [15]: 33 nM; IC50, NF-kB-luciferase, 75 nM Trypsin [15]: 5.7 nM; IC50, NF-kB-luciferase, 200 nM Factor Xa [15]: 45.3 nM; IC50, NF-kB-luciferase, 750 nM Lung Tryptase [15]: 1 nM; Kd [3]: 1.49 nM; T1/2 [3]: 140 min
H2M589N (antibody, V domains shown, chimeric: human variable, mouse constant domains) VH: EVQLLESGGGLVQPGGSLRLSCATSGFTFSRYTMTWVRQAPGKGLFWVSGIGGSGGRAYYADSVKGRFTLSRDNSKNTLYLQMNSLRAEDTAVYYCAKEGDSGYDLDYWGRGTLVTVSS VL: DIQMTQYPSSLSASVGDRVTITCRARQGISNYLAWLQQKPGKAPKSLIYAASSLQRGVPSKFSGSGSGTDFTLTISSLQPEDSATYYCQQYKISPLTFGGGTKVEIK		2.03			1 to 4	1 to 4	0 to 0.09	1 to 4	0 to 0.09	1 to 4	1 to 4	1 to 4	128	7.3	3.75	51.3				6.3	IC50, NF-kB-luciferase, 75 nM Trypsin [15]: 3.7 nM
H2M591N (antibody, V domains shown, chimeric: human variable, mouse constant domains) VH: EVQLLESGGGLVQPGGSLRLSCATSGFTFSRYTMTWVRQAPGKGLFWVSGIGGSGGRAYYADSVKGRFTLSRDNSKNTLYLQMNSLRAEDTAVYYCAKEGDSGYDLDYWGRGTLVTVSS VL: DIQMTQYPSSLSASVGDRVTITCRARQGISNYLAWLQQKPGKAPKSLIYAASSLQRGVPSKFSGSGSGTDFTLTISSLQPEDSATYYCQQYKISPLTFGGGTKVEIK		2.25	0.545	209	1 to 4	1 to 4	0 to 0.09	1 to 4	0 to 0.09	1 to 4	1 to 4	1 to 4	151	8.1	4.22	42.7	150	24.2	122	4.5	IC50, NF-kB-luciferase, 200 nM Factor Xa [15]: 51.5 nM; IC50, NF-kB-luciferase, 750 nM Lung Tryptase [15]: 88.1 nM; Kd [3]: 1.82 nM; T1/2 [3]: 94 min

— patent US20110059095A1 (Regeneron, published 2011)
